We go through one substance from patent publication US20100239590A1.

This experiment concerns the target human IL-17RC on HS68 foreskin fibroblast cells (human) (UniProt Q8NAC3). Put plainly: cell-based or functional assay.
UniProt Q8NAC3, sequence (Q8NAC3 21-791): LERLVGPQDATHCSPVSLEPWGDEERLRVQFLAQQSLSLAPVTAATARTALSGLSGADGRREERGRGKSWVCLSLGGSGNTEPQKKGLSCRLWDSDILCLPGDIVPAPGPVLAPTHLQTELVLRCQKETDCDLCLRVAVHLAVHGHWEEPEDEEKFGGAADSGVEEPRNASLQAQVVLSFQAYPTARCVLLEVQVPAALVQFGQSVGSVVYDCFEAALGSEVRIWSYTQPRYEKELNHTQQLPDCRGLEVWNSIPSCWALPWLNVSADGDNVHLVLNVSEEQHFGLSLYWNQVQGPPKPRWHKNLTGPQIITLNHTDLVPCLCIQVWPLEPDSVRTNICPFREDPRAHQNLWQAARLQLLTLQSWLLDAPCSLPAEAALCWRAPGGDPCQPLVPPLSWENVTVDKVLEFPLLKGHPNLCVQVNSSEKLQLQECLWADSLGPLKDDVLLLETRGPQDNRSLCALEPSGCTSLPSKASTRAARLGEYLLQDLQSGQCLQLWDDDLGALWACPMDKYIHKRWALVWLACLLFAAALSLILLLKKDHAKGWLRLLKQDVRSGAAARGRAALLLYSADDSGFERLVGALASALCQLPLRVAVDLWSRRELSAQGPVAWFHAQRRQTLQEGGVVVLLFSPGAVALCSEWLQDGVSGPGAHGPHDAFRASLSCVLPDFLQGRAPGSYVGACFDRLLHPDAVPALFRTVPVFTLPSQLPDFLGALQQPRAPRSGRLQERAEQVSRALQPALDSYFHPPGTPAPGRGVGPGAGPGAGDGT

Consider “human IL-17A (from UniProt Q16552 24-155) (ligand)”, for which the IL-6 induction in HS68 cells, EC50 lay within 5 to 10 ng/mL.
